Reference: FireProtDB (doi:10.1021/bi00017a003)

Conditions: Hordeum vulgare; pH 6.3; 25 °C; GdnHCl; Fluorescence; MES 50 mM; whole UniProt chain shown

B1: Subtilisin-chymotrypsin inhibitor-2A wild type, P01053 (protein)
chain: MSSVEKKPEGVNTGAGDRHNLKTEWPELVGKSVEEAKKVILQDKPEAQIIVLPVGTIVTMEYRIDRVRLFVDKLDNIAQVPRVG
With B1 the denaturant m value was 1.9 kcal/mol/M and the “denaturant midpoint (higher = more stable)” value was 4 M.
